Assay results: the nanobody polyreactivity screen of Harvey et al. (2022)

Assay: yeast display, Sf9 membrane polyspecificity reagent, FACS + sequencing; frameworks hold sequencing errors
Outline: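 After 36–48 hours of galactose induction, yeast (Saccharomyces cerevisiae BJ5465) displaying a synthetic nanobody library were stained at 4 °C for 1 hour with 10% biotinylated, detergent-solubilized Sf9 membrane reagent. Streptavidin microbeads enriched the stained cells before FACS sorting into low and high (top ~1%) gates on anti-HA and streptavidin fluorescence. Each clone's polyreactivity label reflects its gate of origin.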

Row | Sequence | polyreactivity (PSR sort gate)
1 | QVQLVESGGGLVQAGGSLRLSCAASGFTFNRYAMGWYRQAPGKERELVASITTGGRTNYADSVKGRFTISRDNAKNTVYLQMNSLKPEDTAVYYCAADYGYFYRYYYWGQGTQVTVSS | high polyreactivity
2 | QVQLVESGGGLVQAGGSLRLSCAASGFTFNSYAMGWYRQAPGKERELLAAISRIGGITYYADSVKGRFTISRDNAKNTVYLQMNSLKPEDTAVYYCNTASVYVYTGRYDYWGQGTQVTVSS | high polyreactivity
3 | QVQLVESGGGLVQAGGSLRLSCAASGFTFNSYAMGWYRQAPGKERELVAAITSSGGLTYYADSVKGRFTISRDNAKNTVYLQKNSLKPEDTAVYYCAARPGGKVATIYDYWGQGTQVTVSS | low polyreactivity
4 | QVQLVESGGGLVQAGGSLRLSCAASGFTFNTYAMGWYRQAPGKERELVAAITTSGGSTYYADSVKGRFTISRDNAKNTVYLQMNSLKPEDTAVYSCAAKSGRGVVRGRDDYWGQGTQVTVSS | high polyreactivity
5 | QVQLVESGGGLVQAGGSLRLSCAASGFTFPAYTMGWYRQAPGKEREWVAAITSSGGNTYYADSVKGRFTISRDNAKNTVYLQMNSLKPEDTAVYYCATVSVRWPSNDHVRYDYWGQGTQVTVSS | low polyreactivity
6 | QVQLVESGGGLVQAGGSLRLSCAASGFTFPENAMGWYRQAPGKERELVAAISYRGASTFYADSVKGRFTISRDNAKNTVYLQLISLKPEDTAVYYCATDPRIRYQGNPYDYWGQGTQVTVSS | high polyreactivity
7 | QVQLVESGGGLVQAGGSLRLSCAASGFTFPEYDMGWYRQAPGKERELVAAINYSDGRTFYADSVKGRFTISRDNAKNTVYLQMNSLKPEDTAVYYCATDLSYDVWFFGPDYDYWGQGTQVTVSS | low polyreactivity
8 | QVQLVESGGGLVQAGGSLRLSCAASGFTFPFNAMGWYRQAPGKERELVAAISQRTGRTYYADSVKGRFTISRDNAKNTVYLQMNSLKPEDTAVYYCNARTGTTGYGRYDYWGQGTQVTVSS | high polyreactivity
9 | QVQLVESGGGLVQAGGSLRLSCAASGFTFPGNAMGWYRQAPGKERELVAAISRSGAGTYYADSVKGRFTISRDNAKNTDYLQMNRLKPEDTAVYYCNAVYSSWDYHYRYGYWGQGTQVTVSS | high polyreactivity
10 | QVQLVESGGGLVQAGGSLRLSCAASGFTFPHYAMGWYRQAPGKERELVAAISWSGGNTYYADSVKGRFTISRDNAKNTVYLQMNSLKPEDTAVYYCAKGYSSHYWWAYDSWGQVTQVTVSS | high polyreactivity
11 | QVQLVESGGGLVQAGGSLRLSCAASGFTFPHYAMGWYRQAPGKERELVAVISWSGSSTYYADSVKGRFTISRDNAMNTVYLQMNSLKPEDTAVYYCNTRKLYQVDYDYWGQGTQVTVSS | high polyreactivity
12 | QVQLVESGGGLVQAGGSLRLSCAASGFTFPQYAMGWYRQAPGKERELFAAISKRSGGTRYADSGKGRFTISRDNSKNTVYLHMKSLKPEDTAVNYCINYGQVPGYFTLEYLGQGTQVTVSS | high polyreactivity
13 | QVQLVESGGGLVQAGGSLRLSCAASGFTFPRYAMGWYRQAPGKERELVAAISYSGGRTYYADSVKGRFTISRDNAKNTVYFQMNSLKPEDTAVYYFATEASTKRYDYWGQGTQVSVSS | high polyreactivity
14 | QVQLVESGGGLVQAGGSLRLSCAASGFTFPVNAMGWYRQAPGKERELVATINSGGSTNYADSVKGRFTISRDNAKNTVYLQMNSLKPEDTAVYYCAAAKRTADYASYWYVENDYWGQGTQVTVSS | low polyreactivity
15 | QVQLVESGGGLVQAGGSLRLSCAASGFTFPVYTMGWYRQAPGKERELVAAISGSGASTYYADSVKGRFTISRDNAKNTVYLQMNSLKPEDTAVYYCAAPLWRNYYFGWMDYWGQGTQVTVSS | high polyreactivity
16 | QVQLVESGGGLVQAGGSLRLSCAASGFTFPWNVMGWYRQAPGKEREFVAAISKSAGSTFYADSVKGRFTISRDNAKNTVYLQMNSLKPEDTAVYFCAKPRVPGVHVQEMYYWGQGTQVTVSS | low polyreactivity
17 | QVQLVESGGGLVQAGGSLRLSCAASGFTFPWYAMGSSRQAPGKERELVASISYRGDSTYYADSVKGRFTISRDNAKKTVNLQMNSLKPEDTAVYYCNKRLASYYLPGFDYWGQGTQVTVSS | low polyreactivity
18 | QVQLVESGGGLVQAGGSLRLSCAASGFTFPWYAMGWYRQAPGKERELVAVISSSGGSTYYADSVKGRFTISRDNAKNTVYLQMNSLKPEDTAVYYCNKDYYKRAYLFGYWGQGTQVTVSS | high polyreactivity
19 | QVQLVESGGGLVQAGGSLRLSCAASGFTFPYNAMGWYRQAPGKERELVAAISSTGGITYYADSVKGRFTISRDNAKNTVYLQLNSLKPEDTAVYYCGWYDYWGLGTQVTVSS | low polyreactivity
20 | QVQLVESGGGLVQAGGSLRLSCAASGFTFPYNGMGWYRQAPGKERELVASISWSGASTYYADSVKGRFTISRDNAKNTVYLQMNSLKPEDTAVYYCAADPGYYSWGSSQDDYWGQGTQVTVSS | low polyreactivity
21 | QVQLVESGGGLVQAGGSLRLSCAASGFTFPYYAMGWYRPAPGKDRELVARISSGGSTHYADSVKGRFTISRDNAKNTVYVQMNSLKPEDTADYYCAREPWWGYHGEYDYWGQGTEVTVSS | high polyreactivity
22 | QVQLVESGGGLVQAGGSLRLSCAASGFTFPYYAMGWYRPAPGKERELVAAISWIGDSTYYADSVKGRFTISRDNAKNTVYLQMNSLKPEDTAVYYCAAGYKWSIPNRDYDYWGQGTQVTVSS | low polyreactivity

Row | Sequence | polyreactivity (PSR sort gate)
23 | QVQLVESGGGLVQAGGSLRLSCAASGFTFPYYAMGWYRQAPGKERELVATISNGGNTYYADSVKGRFTISRDNAKNTVYLQMNSLKPEDTAVYYCNAVVWAWMGYWGQGTQVTVSS | high polyreactivity
24 | QVQLVESGGGLVQAGGSLRLSCAASGFTFPYYAMGWYRQAPGTERELVASNSRSGSTNYADSVKGRFTISRDNAKNTVYLQMNSLKPEDTAVYYCAAQLYSRGGYWGHGTQVTVSS | high polyreactivity
25 | QVQLVESGGGLVQAGGSLRLSCAASGFTFQAYAMGWYRQAPGKVRELVAAINFSTGRTYYADSVKGRFTISRDNAKNTVYLQMNSLKPEDTAVYYCAADGSWTRSYDFDYWGQGTQVTVSS | high polyreactivity
26 | QVQLVESGGGLVQAGGSLRLSCAASGFTFQGNAKGCYIQAPGKERELVGAISYDGGSTYYADSVKGRFTISRDNAKNTVYLQMNSLKPEDTAVYYCAAYVGTWYYYWGQGTQVTVSS | high polyreactivity
27 | QVQLVESGGGLVQAGGSLRLSCAASGFTFQGNAMGWYRQAPGKERELVAAISWSGGRTYYADSVKGRFTISRDNAKNTVYCQMNSLKPEDTAVYYCAIVYKDVSGDDYWGQGTQVTVSS | low polyreactivity
28 | QVQLVESGGGLVQAGGSLRLSCAASGFTFQHNSMGWYRQAPGKERELVAAISLGGSTNYADSVKGRFTISRDNAKNSVYLQMNSLKPEDSAVYYCAAYDWRVLWGYDYWGQGTQVTVSS | low polyreactivity
29 | QVQLVESGGGLVQAGGSLRLSCAASGFTFQINTMGWYRQAPGKERELVAAINYSGGSTYYADSVKGRFTISRDNAKNTDYLQMNSLKPEDTAVYYCATDHYRNPWRWYRYGYWGQGTQVTVSS | low polyreactivity
30 | QVQLVESGGGLVQAGGSLRLSCAASGFTFQKYAMGWYRQAPGKERELVAAISSSGGRTYYADSVKGRFTISRDNAKNTVYLQMNSLKPEDTAVYYCNAVPGYVYDYQYWGQGTQVTVSS | high polyreactivity
31 | QVQLVESGGGLVQAGGSLRLSCAASGFTFQKYAMGWYRQAPGKERELVAAISSSGGRTYYADSVKGRFTISRDNAKNTVYLQMNSLKPEDTAVYYCNAVPGYVYYYQYWGQGTQVTVSS | high polyreactivity
32 | QVQLVESGGGLVQAGGSLRLSCAASGFTFQNYVMGWYRQAPGKERELVAAINSGGRTYYADSVKGRFTISRDNAKNTVYLQMNSLKPEDTAVYYCNAVQPATYKYRSHVIEYDYWGQGSQVTVSS | high polyreactivity
33 | QVQLVESGGGLVQAGGSLRLSCAASGFTFQYYAMGCYRQAPGKERELVAAISARDGSTYYADSVKGRFTISRDNAKNTVYLQMNSLKPEDTAVYYCAARSNYRNAYAYYYWGQGTQVTVSS | high polyreactivity
34 | QVQLVESGGGLVQAGGSLRLSCAASGFTFQYYAMGWYIQAPGKERELVATITTSGGNTYYADSVKGRFTISRDNAKNTVYLQMNSLKPEDTAVYYCAARRYRASSRGYGYWGQGTQVTVSS | high polyreactivity
35 | QVQLVESGGGLVQAGGSLRLSCAASGFTFQYYAMGWYRQAPGKERELVAAINWSGGRTYYADSVKGRFTISRDNAKNTVYLQMNSLKPEDTAVYYCAATRSFSGGYGYVSYDYWGQGTQVTVSS | high polyreactivity
36 | QVQLVESGGGLVQAGGSLRLSCAASGFTFRDNAMGWYRQAPGKERELVAAITRGGSTYYADSVKGRFTISRDNAKNTVYLQMNSLKPEDTAVYYCAKALYRREYSSGGYYRFDYWGQGTQVTVSS | high polyreactivity
37 | QVQLVESGGGLVQAGGSLRLSCAASGFTFRDNAMGWYRQAPGKERELVAAITWDGGSTYYADSVKGRFTISRDNAKNTVYLQMYSLKPEDTAVYYCAASRYYPRYFKRYYYWGQGTQVTVSS | high polyreactivity
38 | QVQLVESGGGLVQAGGSLRLSCAASGFTFRDNTMGWYRQAPGKERELVASISWSGGSTYYADSVKGRFTFSRDYAKNTVYLQMNSVKPEDTAVYYCAADDGSQYYFVSPHEYDYWGQGTQVTVSS | low polyreactivity
39 | QVQLVESGGGLVQAGGSLRLSCAASGFTFRDYAMGWYRQAPGKERELVATITWRVGSTFYADSVKGRFTISRDNAKNTVYLQMNSLKPEDTAVYYCADEDSNVVAYDYWGQGTQVTVSS | low polyreactivity
40 | QVQLVESGGGLVQAGGSLRLSCAASGFTFRDYVMGWYTQAPGKERELVAAISRSGASTYYADSVKGRFTISRDNAKNTVYLQMNSLKPEDTAVYYCAKTQAGYSPGTYDYWGQGTQVTVSS | high polyreactivity
41 | QVQLVESGGGLVQAGGSLRLSCAASGFTFRENAMGWYRQAPGKERELVAAISKRGGTTYYADSVKGRFTISRDNAKNTVYLQMNSLKPEDTAVYYCAAESYSGPYAYEYWGQGTQVTVSS | high polyreactivity
42 | QVQLVESGGGLVQAGGSLRLSCAASGFTFRENTMGWYRQAPGKERELVASISWSGGSTYYADSVKGRFTISRDNAKNTVYLQMNSLKPEDTAVYYCAATYAWLSKGYRGMDYWGQGTQVTVSS | low polyreactivity
43 | QVQLVESGGGLVQAGGSLRLSCAASGFTFRINAMGWYRQAPGKERELVAAISWSGGSTYYADSVKGRFTISRDNAKNTVYLQMNSLKPEDTAVYYCNKVQSSRYRSQRTFQYGYWGQGTQVTVSS | high polyreactivity
